Entries after “also recorded” stand apart in the source; their conditions may differ.
B1: AIM: apoptosis inhibitor of macrophage, secretory protein with three SRCR domains; recombinant mouse and human AIM in Example 2, mouse AIM in Examples 3-16 (protein)
chain: ESPTKVQLVGGAHRCEGRVEVEHNGQWGTVCDDGWDRRDVAVVCRELNCGAVIQTPRGASYQPPASEQRVLIQGVDCNGTEDTLAQCELNYYVFDCSHEEDAGAQCENPDSDLLFIPEDVRLVDGPGHCQGRVEVLHQSQWSTVCKAGWNLQVSKVVCRQLGCGRALLTYGSCNKNTQGKGPIWMGKMSCSGQEANLRSCLLSRLENNCTHGEDTWMECEDPFELKLVGGDTPCSGRLEVLHKGSWGSVCDDNWGEKEDQVVCKQLGCGKSLHPSPKTRKIYGPGAGRIWLDDVNCSGKEQSLEFCRHRLWGYHDCTHKEDVEVICTDFDV
B2: mouse AIM: protein consisting of the amino acid sequence shown in SEQ ID NO: 5; recombinant, purified from HEK293T culture supernatant (protein)
chain: MAPLFNLMLAILSIFVGSCFSESPTKVQLVGGAHRCEGRVEVEHNGQWGTVCDDGWDRRDVAVVCRELNCGAVIQTPRGASYQPPASEQRVLIQGVDCNGTEDTLAQCELNYYVFDCSHEEDAGAQCENPDSDLLFIPEDVRLVDGPGHCQGRVEVLHQSQWSTVCKAGWNLQVSKVVCRQLGCGRALLTYGSCNKNTQGKGPIWMGKMSCSGQEANLRSCLLSRLENNCTHGEDTWMECEDPFELKLVGGDTPCSGRLEVLHKGSWGSVCDDNWGEKEDQVVCKQLGCGKSLHPSPKTRKIYGPGAGRIWLDDVNCSGKEQSLEFCRHRLWGYHDCTHKEDVEVICTDFDV
modifications: mouse
notes: recombinant, purified from HEK293T culture supernatant

Assays:
[1] = system: mature adipocytes (differentiated 3T3-L1 cells); assay: Induction of lipolysis in mature 3T3-L1 adipocytes (lipid droplets, glycerol and free fatty acid efflux); format: cell-based, mouse
Procedure: The effect of AIM on mature adipocytes was examined.
Then, the cells on the 10th day (day 12) after the initiation of the stimuli for differentiation induction were stained with oil-red-o. The number of cells having lipid droplets was counted. Further, the diameter of lipid droplets was measured in the cells having lipid droplets. For comparison, the number of the cells was counted and the diameter of lipid droplets was measured for the cells cultured in the above-mentioned schedules (a) and (d).
Further, the supernatant of the culture medium after the cells were cultured while loading AIM according to the schedule (e) was collected, and amounts of glycerol and free fatty acid (FFA) contained in the supernatant were measured by ELISA. For the comparison, the amounts of glycerol and free fatty acid in the culture supernatant obtained according to the schedule (a) were also measured.
In order to avoid adsorption of free fatty acid to albumin contained in the culture medium, the culture medium supplemented with 10% FBS (fetal bovine serum) was exchanged to a serum-free culture medium on the 10th day (day 12) after the initiation of the differentiation induction, further the cells were cultured in the serum-free culture medium for 6 hours, and subsequently the amounts of glycerol and free fatty acid contained in the supernatant of the serum-free culture medium were measured.
FIG. 7A and FIG. 7B illustrate the evaluation results of the number (per 10^4 μm^2) of cells having lipid droplets (Droplet (+) cells) and the relative diameter of lipid droplets (%) obtained according to the schedules (a), (d), and (e) (Exp. a, d, and e), respectively. The relative diameter of lipid droplets illustrated in FIG. 7B was calculated by defining the diameter of lipid droplets in the cells obtained according to the schedule (a) without AIM loading as 100%. FIG. 8A and FIG. 8B illustrate the concentration of glycerol (Glycerol Efflux, mM) and the concentration of free fatty acid (FFA Efflux, ×10 mM) in the culture medium obtained according to the schedules (a) and (e) (Exp. a and e), respectively.
In addition, FIG. 13A and FIG. 13B illustrate the results of measuring the glycerol concentration (glycerol efflux, mM) and the free fatty acid concentration (FFA efflux, ×10 mM) in the culture medium on the 10th day (day 12) after the initiation of the differentiation induction in the case of loading no AIM according to the schedule (a) (None), the case of loading AIM according to the schedule (f) (AIM), and the case of loading the FAS inhibitor according to the schedule (f) (C75), respectively.

3T3-L1 preadipocytes = assay: Differentiation of 3T3-L1 preadipocytes into mature adipocytes, oil-red-o staining; format: cell-based, mouse
Procedure: In order to examine how AIM produced by the macrophages infiltrating the adipose tissues works on surrounding adipocytes, an experiment in which AIM was loaded during a culture process of differentiating 3T3-L1 preadipocytes into the mature adipocytes was performed.
A recombinant mouse AIM protein and a recombinant human AIM protein were used as AIM. Those recombinant AIM proteins were prepared by culturing human-derived HEK293T cells transfected with a vector expressing mouse AIM or human AIM and isolating and purifying the protein from its culture supernatant. The same recombinant AIM proteins were also used as AIM in other examples shown below. AIM was loaded by adding AIM at a concentration of 5 μg/mL to the culture medium.
Differentiation induction (Induction) of the 3T3-L1 cells was initiated by first culturing the 3T3-L1 cells for 4 days (day −2 to day 2) to proliferate the cells (Cell proliferation) and subsequently culturing the cells in a culture medium containing insulin, dexamethasone (DEX), and isobutylmethylxanthine (IBMX) for 2 days (day 2 to day 4). The differentiation induction was further continued by culturing the cells in a culture medium containing insulin for 2 days (day 4 to day 6).
After the period of the differentiation induction (day 2 to day 6), the culture was continued in a culture medium not containing those differentiation-inducing factors. Then, the cells on the 10th day (day 12) after the initiation of the stimuli for differentiation induction were stained with oil-red-o, and the differentiation of the 3T3-L1 cells to mature adipocytes was observed.
In addition, using a FAS inhibitor (C75) in place of AIM, the FAS inhibitor at a concentration of 25 μM was loaded according to the schedules (d) and (f), and as was the case with the above-mentioned AIM, the cells were collected on the 2nd day (day 4: schedule (d)) and 10th day (day 12: schedule (f)) after the initiation of the differentiation induction, and the enzyme activity of FAS was measured.
FIG. 12A and FIG. 12B show the results of staining the cells with oil-red-o and analyzing the gene expression by RT-PCR on the 2nd day (day 4) after the initiation of the differentiation induction in the case of loading no AIM according to the schedule (a) (None), the case of loading AIM according to the schedule (d) (AIM (5 μg/mL)), and the case of loading the FAS inhibitor according to the schedule (d) (C75 (25 μM)), respectively.

AIM-/- macrophages = AIM-/- macrophages loaded with recombinant AIM molecules; Document 1; cited from earlier work
AIM-/- mice = assay: Intraperitoneal rAIM in AIM-/- mice given HFD; format: in vivo, mouse
Procedure: While giving HFD to AIM^−/− mice for 15 weeks, mouse rAIM was intraperitoneally injected into the AIM^−/− mice for the last 9 weeks to examine whether the administration of rAIM inhibits the increase of the adipose tissue mass. That is, rAIM was intraperitoneally injected three times a week into the AIM^−/− mice ((150 μg/injection/mouse)×(three times/week)=(450 μg/mouse/week)) over the last 9 weeks, and the body weight, the weight of the visceral fat, and the weight of the subcutaneous fat were measured in the 15th week. The body weight, the weight of the visceral fat, and the weight of the subcutaneous fat were also measured in the AIM^−/− mice as the control to which BSA (bovine serum albumin) had been intraperitoneally administered in the same administration schedule.
FIG. 30A, FIG. 30B, and FIG. 30C show the results (n=3) of measuring the body weight (Body) (g), the weight of the visceral adipose tissue (Visceral fat) (g), and the amount of the subcutaneous adipose tissue (Subcutaneous fat) (g) in the AIM/mice to which BSA was administered (BSA) and the AIM^−/− mice to which rAIM was administered (rAIM), respectively.
Further, mRNA levels of FSP27, perilipin, and adipophilin were evaluated in each of the AIM^−/− mice to which BSA was administered and the AIM^−/− mice to which rAIM was administered. The mRNA levels were measured using RNA isolated from epididymal fat and using QPCR.
FIG. 31 illustrates the mRNA levels (n=3) of FSP27, perilipin, and adipophilin evaluated in each of the AIM^−/− mice to which BSA was administered (BSA) and the AIM^−/− mice to which rAIM was administered (rAIM). It should be noted that values illustrated in FIG. 31 were normalized to GAPDH and represented as expressions relative to the results in the mice to which BSA had been injected.

[2] = mouse AIM, schedule (e), compared with schedule (a)
[3] = epididymal fat, QPCR, rAIM ip versus BSA
[4] = mouse rAIM ip 150 μg/injection/mouse, three times/week, last 9 of 15 weeks HFD, versus BSA

Molecule	concentration of free fatty acid in the culture supernatant [1, 2]	concentration of glycerol in the culture supernatant [1, 2]	diameter of lipid droplets contained in adipocytes, relative to schedule (a) ([1]; mouse AIM, schedule (e): day 6 to day 12, schedule (a) without AIM defined as 100%)	number of the cells having lipid droplets ([1]; mouse AIM, schedule (e): day 6 to day 12 after differentiation, compared with schedule (a) without AIM)	increase of the number of dead cells due to the loading of AIM (3T3-L1 preadipocytes; 3T3-L1 cells loaded with AIM)	differentiation of the 3T3-L1 cells to the mature adipocytes (3T3-L1 preadipocytes; AIM continuously loaded day -2 to day 12, data not shown)	differentiation of the 3T3-L1 cells (3T3-L1 preadipocytes; mouse or human rAIM 5 μg/mL, schedule (b): day 2 to day 12, stained day 12)	differentiation of the 3T3-L1 cell (3T3-L1 preadipocytes; mouse or human rAIM 5 μg/mL, schedule (d): early phase of differentiation induction only (day 2 to day 4), stained day 12)	differentiation of the 3T3-L1 cells to the mature adipocytes (3T3-L1 preadipocytes; schedule (c): AIM only before differentiation induction (day -2 to day 2))	resistance to the apoptosis (AIM-/- macrophages)	lipolysis induction function in adipocytes derived from mice ([1]; mouse AIM and human AIM compared, same range of concentrations in vitro)	differentiation of 3T3-L1 cells derived from mice / differentiation inhibitory function (3T3-L1 preadipocytes; mouse AIM and human AIM compared, in vitro)	mRNA level of FSP27 (AIM-/- mice; [3])	mRNA level of adipophilin (AIM-/- mice; [3])	mRNA level of perilipin (AIM-/- mice; [3])	body weight gain (AIM-/- mice; [4])	increase in weight of the subcutaneous fat (AIM-/- mice; [4])	increase in weight of the visceral fat (AIM-/- mice; [4])
B1	remarkably increased	remarkably increased	about 25%	remarkably decreased	not observed	completely inhibited	almost completely inhibited	almost completely inhibited	not inhibited	enhanced								
B2											similarly exerted	inhibited; also recorded: similarly exerted	low	low	low	remarkably small	remarkably small	remarkably small
